Reference: the supplement of paper PMC7877785
± gives the uncertainty stated by the source.

Test: self-splicing fitness, log relative to wild type (ln ratio); higher = more splicing; Tetrahymena group I intron in knt gene, E. coli kanamycin selection, DiMSum; sequences stand for … in CUCUCU…GGAGGGAAAAGUUAUCAGGCAUGCACCUGGUAGCUAGUCUUUAAACCAAUAGAUUGCAUCGGUUUAAAAGGCAAGACCGUCAAAUUGCGGGAAAGGGGUCAACAGCCGUUCAGUACCAAGUCUCAGGGGAAACUUUGAGAUGGCCUUGCAAAGGGUAUGGUAAUAAGCUGACGGACAUGGUCCUAACCACGCAGCCAAGUCCUAAGUCAACAGAUCUUCUGUUGAUAUGGAUGCAGUUCACAGACUAAAUGUCGGUCGGGGAAGAUGUAUUCUUCUCAUAAGAUAUAGUCGGACCUCUCCUUAAUGGGAGCUAGCGGAUGAAGUGAUGCAACACUGGAGCCGCUGGGAACUAAUUUGUAUGCGAAAGUAUAUUGAUUAGUUUUGGAGUACUCGUGGUCG
Summary of the method: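 A randomised library covering all eight P1ex-region intron nucleotides was built with the intron in the knt kanamycin-resistance gene on pET-22b(+) and held in E. coli BL21(DE3). Cells were grown overnight at 37°C or 30°C on LB agar, with or without 25 μg/mL kanamycin, plus 100 μg/mL carbenicillin, 50 μM IPTG and 0.2% rhamnose, and pooled colonies were amplicon-sequenced on an Illumina HiSeq 2500. DiMSum fitness is the error-weighted combination of wild-type-normalised replicate fold changes, kanamycin versus none.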

| Sequence | self-splicing fitness (ln) (30 °C) | self-splicing fitness (ln) (37 °C) |
| --- | --- | --- |
| GCCUAGCAAUAUUACGGGCU | -3.65 ± 0.23 | -2.07 ± 0.24 |
| GCCUAGCAAUAUUACGGGGC | – | -2.81 ± 0.47 |
| GCCUAGCAAUAUUACGGUCA | -0.989 ± 0.13 | -0.494 ± 0.12 |
| GCCUAGCAAUAUUACGUAAU | -0.648 ± 0.071 | 0.224 ± 0.087 |
| GCCUAGCAAUAUUACGUAUA | -3.04 ± 0.25 | -1.63 ± 0.15 |
| GCCUAGCAAUAUUACGUCAG | -2.36 ± 0.26 | -0.81 ± 0.34 |
| GCCUAGCAAUAUUACGUGAU | -0.0579 ± 0.072 | 0.159 ± 0.079 |
| GCCUAGCAAUAUUACGUGCA | -2.35 ± 0.12 | -0.937 ± 0.1 |
| GCCUAGCAAUAUUACGUGGA | -0.477 ± 0.068 | 0.358 ± 0.076 |
| GCCUAGCAAUAUUACGUUAG | -4.33 ± 0.18 | -2.4 ± 0.16 |
| GCCUAGCAAUAUUACGUUUG | -2.89 ± 0.21 | -0.761 ± 0.13 |
| GCCUAGCAAUAUUACGUUUU | -1.7 ± 0.097 | -0.614 ± 0.12 |
| GCGAAGCAAUAUUACGAAGC | -2.71 ± 0.39 | -2.49 ± 0.36 |
| GCGAAGCAAUAUUACGAAUC | -2.47 ± 0.11 | -1.11 ± 0.12 |
| GCGAAGCAAUAUUACGAGGC | – | -1.65 ± 0.45 |
| GCGAAGCAAUAUUACGAUGA | -1.1 ± 0.11 | 0.105 ± 0.098 |
| GCGAAGCAAUAUUACGCAGC | -3.31 ± 0.25 | -2.06 ± 0.34 |
| GCGAAGCAAUAUUACGCAUA | -1.92 ± 0.2 | -1.76 ± 0.16 |
| GCGAAGCAAUAUUACGCGGA | – | -1.26 ± 0.36 |
| GCGAAGCAAUAUUACGCUCU | -1.7 ± 0.24 | -1.49 ± 0.38 |
| GCGAAGCAAUAUUACGCUGU | -1.5 ± 0.39 | – |
| GCGAAGCAAUAUUACGGCGA | -0.0437 ± 0.14 | 0.0298 ± 0.15 |
| GCGAAGCAAUAUUACGGCGU | -2.68 ± 0.37 | -0.799 ± 0.46 |
| GCGAAGCAAUAUUACGGCUA | 0.15 ± 0.15 | -0.618 ± 0.12 |
| GCGAAGCAAUAUUACGGGAU | -3.58 ± 0.3 | -2.07 ± 0.26 |

| Sequence | self-splicing fitness (ln) (30 °C) | self-splicing fitness (ln) (37 °C) |
| --- | --- | --- |
| GCGAAGCAAUAUUACGGGCC | – | -1.37 ± 0.46 |
| GCGAAGCAAUAUUACGGGGA | -3.69 ± 0.23 | -3.12 ± 0.33 |
| GCGAAGCAAUAUUACGGUUC | -3.23 ± 0.2 | -1.24 ± 0.18 |
| GCGAAGCAAUAUUACGGUUU | -3.22 ± 0.13 | -1.62 ± 0.13 |
| GCGAAGCAAUAUUACGUACC | -1.02 ± 0.17 | 0.269 ± 0.19 |
| GCGAAGCAAUAUUACGUAGA | -3.57 ± 0.44 | -1.75 ± 0.37 |
| GCGAAGCAAUAUUACGUUAA | -1.65 ± 0.18 | -1.88 ± 0.23 |
| GCGCAGCAAUAUUACGAACA | -1.64 ± 0.12 | -1.32 ± 0.097 |
| GCGCAGCAAUAUUACGCACC | -3.7 ± 0.2 | -2.41 ± 0.25 |
| GCGCAGCAAUAUUACGCCCU | – | 0.00379 ± 0.44 |
| GCGCAGCAAUAUUACGCCGA | -0.753 ± 0.49 | -1.27 ± 0.28 |
| GCGCAGCAAUAUUACGCGAC | -1.77 ± 0.12 | -1.79 ± 0.18 |
| GCGCAGCAAUAUUACGCGGC | – | -3.69 ± 0.37 |
| GCGCAGCAAUAUUACGCGUA | -1.14 ± 0.082 | -1.39 ± 0.083 |
| GCGCAGCAAUAUUACGCUGG | -2.1 ± 0.1 | -2.13 ± 0.16 |
| GCGCAGCAAUAUUACGCUUU | -1.39 ± 0.068 | -0.38 ± 0.083 |
| GCGCAGCAAUAUUACGGAUC | -0.0635 ± 0.068 | 0.419 ± 0.083 |
| GCGCAGCAAUAUUACGGCGA | -0.0713 ± 0.075 | -0.173 ± 0.089 |
| GCGCAGCAAUAUUACGGCUC | -0.438 ± 0.12 | 0.47 ± 0.15 |
| GCGCAGCAAUAUUACGGGGA | -2.23 ± 0.14 | -0.687 ± 0.11 |
| GCGCAGCAAUAUUACGGUGG | -1.74 ± 0.059 | -0.842 ± 0.08 |
| GCGCAGCAAUAUUACGUAGC | -1.95 ± 0.11 | -0.709 ± 0.12 |
| GCGCAGCAAUAUUACGUAUG | -3.67 ± 0.23 | -1.8 ± 0.21 |
| GCGCAGCAAUAUUACGUCAA | -2.46 ± 0.14 | -0.0917 ± 0.1 |
| GCGCAGCAAUAUUACGUGGC | -1.81 ± 0.29 | -2.36 ± 0.29 |

| Sequence | self-splicing fitness (ln) (30 °C) | self-splicing fitness (ln) (37 °C) |
| --- | --- | --- |
| GCGCAGCAAUAUUACGUUGG | -1.81 ± 0.06 | -1.76 ± 0.097 |
| GCGCAGCAAUAUUACGUUUC | -1.35 ± 0.057 | -0.727 ± 0.074 |
| GCGGAGCAAUAUUACGACGA | -0.227 ± 0.16 | -0.189 ± 0.14 |
| GCGGAGCAAUAUUACGCAGC | -1.9 ± 0.35 | -2.35 ± 0.34 |
| GCGGAGCAAUAUUACGCCCU | -2.95 ± 0.45 | – |
| GCGGAGCAAUAUUACGCGCG | -2.77 ± 0.34 | -2.83 ± 0.27 |
| GCGGAGCAAUAUUACGCGUU | -2.26 ± 0.24 | -1.23 ± 0.22 |
| GCGGAGCAAUAUUACGGAAA | – | -1.54 ± 0.46 |
| GCGGAGCAAUAUUACGGUGA | -2.38 ± 0.46 | – |
| GCGGAGCAAUAUUACGUACG | -2.97 ± 0.28 | -2.71 ± 0.44 |
| GCGGAGCAAUAUUACGUACU | -1.85 ± 0.21 | -1.46 ± 0.22 |
| GCGGAGCAAUAUUACGUAUA | – | -2.2 ± 0.44 |
| GCGGAGCAAUAUUACGUCGA | -2.59 ± 0.32 | -1.83 ± 0.24 |
| GCGGAGCAAUAUUACGUGUG | -3.19 ± 0.17 | -2.77 ± 0.29 |
| GCGGAGCAAUAUUACGUUAU | -3.7 ± 0.19 | -2.81 ± 0.15 |
| GCGGAGCAAUAUUACGUUGC | -4.4 ± 0.42 | -2.78 ± 0.34 |
| GCGUAGCAAUAUUACGAAUC | -1.05 ± 0.17 | -0.37 ± 0.2 |
| GCGUAGCAAUAUUACGAAUU | -1.52 ± 0.1 | -0.549 ± 0.12 |
| GCGUAGCAAUAUUACGACAA | -0.888 ± 0.12 | -0.789 ± 0.13 |
| GCGUAGCAAUAUUACGAUAG | -2.2 ± 0.26 | -1.83 ± 0.34 |
| GCGUAGCAAUAUUACGAUCA | -0.167 ± 0.14 | 0.0769 ± 0.14 |
| GCGUAGCAAUAUUACGAUCU | -1.34 ± 0.17 | -0.0119 ± 0.18 |
| GCGUAGCAAUAUUACGAUGU | -2.18 ± 0.068 | -1.15 ± 0.096 |
| GCGUAGCAAUAUUACGAUUU | 0.253 ± 0.088 | -0.282 ± 0.09 |
| GCGUAGCAAUAUUACGCAAG | -3.32 ± 0.41 | – |

| Sequence | self-splicing fitness (ln) (30 °C) | self-splicing fitness (ln) (37 °C) |
| --- | --- | --- |
| GCGUAGCAAUAUUACGCCAC | – | -2.26 ± 0.29 |
| GCGUAGCAAUAUUACGCCAG | -3.15 ± 0.41 | -2.32 ± 0.37 |
| GCGUAGCAAUAUUACGCCGG | -2.21 ± 0.21 | -3.92 ± 0.42 |
| GCGUAGCAAUAUUACGCGCA | – | -1.07 ± 0.35 |
| GCGUAGCAAUAUUACGCGUU | -1.14 ± 0.19 | -1.55 ± 0.22 |
| GCGUAGCAAUAUUACGGACU | -0.176 ± 0.13 | -0.78 ± 0.19 |
| GCGUAGCAAUAUUACGGAGA | -2.63 ± 0.21 | -1.87 ± 0.23 |
| GCGUAGCAAUAUUACGGAUG | -1.41 ± 0.16 | -1.98 ± 0.18 |
| GCGUAGCAAUAUUACGGCAA | 0.755 ± 0.46 | -1.01 ± 0.27 |
| GCGUAGCAAUAUUACGGCUU | -1.21 ± 0.11 | -0.0921 ± 0.14 |
| GCGUAGCAAUAUUACGUAGA | -3.35 ± 0.19 | -2.88 ± 0.29 |
| GCGUAGCAAUAUUACGUCUA | -1.06 ± 0.22 | -0.924 ± 0.15 |
| GCUAAGCAAUAUUACGACAA | -1.43 ± 0.18 | -2.5 ± 0.2 |
| GCUAAGCAAUAUUACGACAC | -0.804 ± 0.074 | 0.369 ± 0.11 |
| GCUAAGCAAUAUUACGACGC | -1.52 ± 0.16 | -0.603 ± 0.18 |
| GCUAAGCAAUAUUACGAGCU | -2.25 ± 0.33 | -0.165 ± 0.31 |
| GCUAAGCAAUAUUACGAGGC | -1.85 ± 0.21 | -1.6 ± 0.33 |
| GCUAAGCAAUAUUACGAGUA | -1.73 ± 0.18 | -1.31 ± 0.12 |
| GCUAAGCAAUAUUACGAUAC | -1.9 ± 0.12 | -0.355 ± 0.11 |
| GCUAAGCAAUAUUACGAUUG | -2.78 ± 0.11 | -1.17 ± 0.12 |
| GCUAAGCAAUAUUACGCCUA | -1.55 ± 0.3 | -0.198 ± 0.2 |
| GCUAAGCAAUAUUACGCGAG | -2.6 ± 0.13 | -1.18 ± 0.14 |
| GCUAAGCAAUAUUACGCUCG | -0.473 ± 0.094 | -0.832 ± 0.13 |
| GCUAAGCAAUAUUACGCUCU | -1.11 ± 0.13 | 0.486 ± 0.15 |
